Reference: publication PMC6806390

Target: T1, Myoglobin from Horse Heart (Sigma M-9267) (horse), P68082
T1 chain: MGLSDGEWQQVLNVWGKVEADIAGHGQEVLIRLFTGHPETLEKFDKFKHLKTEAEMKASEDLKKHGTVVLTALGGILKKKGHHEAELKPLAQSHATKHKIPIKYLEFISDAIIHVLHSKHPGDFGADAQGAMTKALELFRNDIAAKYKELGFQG
Test: SDS-PAGE of the methanol precipitate
Conditions: remark: other sources report otherwise

B1: Myoglobin from Horse Heart (Sigma M-9267), P68082 1-154 (natural protein)
chain: MGLSDGEWQQVLNVWGKVEADIAGHGQEVLIRLFTGHPETLEKFDKFKHLKTEAEMKASEDLKKHGTVVLTALGGILKKKGHHEAELKPLAQSHATKHKIPIKYLEFISDAIIHVLHSKHPGDFGADAQGAMTKALELFRNDIAAKYKELGFQG
  stoichiometry N: 3
